The values below come from patent publication US20140155582A1 (Astellas, published 2014).

Assay [1] deals with human βNGF (R&D Systems, Inc.) (human, UniProt P01138 122-241). Kind of assay: cell-based or functional assay.
Assay [2] addresses mouse βNGF (R&D Systems, Inc.) (mouse, UniProt P01139 122-241). Put plainly: cell-based or functional assay.

human βNGF (R&D Systems, Inc.), sequence (P01138 122-241 limits assumed): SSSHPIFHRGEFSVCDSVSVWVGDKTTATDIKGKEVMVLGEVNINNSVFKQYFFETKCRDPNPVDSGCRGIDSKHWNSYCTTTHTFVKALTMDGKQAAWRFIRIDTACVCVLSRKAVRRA
mouse βNGF (R&D Systems, Inc.), sequence (P01139 122-241 limits assumed): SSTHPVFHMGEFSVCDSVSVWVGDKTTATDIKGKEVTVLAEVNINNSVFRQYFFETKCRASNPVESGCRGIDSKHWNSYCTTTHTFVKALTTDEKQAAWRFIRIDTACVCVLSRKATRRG

B1: tanezumab (antibody, V domains shown)
VH: QVQLQESGPGLVKPSETLSLTCTVSGFSLIGYDLNWIRQPPGKGLEWIGIIWGDGTTDYNSAVKSRVTISKDTSKNQFSLKLSSVTAADTAVYYCARGGYWYATSYYFDYWGQGTLVTVSS
VL: DIQMTQSPSSLSASVGDRVTITCRASQSISNNLNWYQQKPGKAPKLLIYYTSRFHSGVPSRFSGSGSGTDFTFTISSLQPEDIATYYCQQEHTLPYTFGQGTKLEIKR
Turning to B1, the “IC50, method of Example 6 (Ca2+, HEK293-human trkA)” value in assay [1] was determined as 0.17 µg/mL; in assay [2], 0.23 µg/mL.

B2: 1-15(N52D-A)-Fab′ conjugated to 5 kDa PEG (Fab, V domains shown)
VH: QVQLQQWGAGLLKPSETLSLTCAVYGGSFSGYYWSWVRQPPGKGLEWIGEIDHSGSTNNNPSLKSRVTISVGTSKNQFSLKLSSVTAADTAVYYCSRDGGPESGMGAFDIWGQGTMVTVSS
VL: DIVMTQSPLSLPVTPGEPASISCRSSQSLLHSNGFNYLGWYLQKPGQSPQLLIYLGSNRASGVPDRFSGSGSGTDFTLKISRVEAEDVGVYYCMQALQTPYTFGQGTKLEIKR
modifications: 5 kDa PEG conjugated by a procedure similar to Example 13 (hinge region Cys)
Take B2: in assay [1], the “IC50, method of Example 6 at a final NGF concentration of 50 ng/ml” value was found to be 0.03 µg/mL.

B3: 1-15(N52D-A)-Fab′ conjugated to 10 kDa PEG (Fab, V domains shown)
VH: QVQLQQWGAGLLKPSETLSLTCAVYGGSFSGYYWSWVRQPPGKGLEWIGEIDHSGSTNNNPSLKSRVTISVGTSKNQFSLKLSSVTAADTAVYYCSRDGGPESGMGAFDIWGQGTMVTVSS
VL: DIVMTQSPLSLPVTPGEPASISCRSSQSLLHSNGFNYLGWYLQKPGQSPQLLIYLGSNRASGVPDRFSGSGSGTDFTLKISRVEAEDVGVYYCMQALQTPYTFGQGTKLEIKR
modifications: 10 kDa PEG conjugated by a procedure similar to Example 13 (hinge region Cys)
For B3, the “IC50, method of Example 6 at a final NGF concentration of 50 ng/ml” value in assay [1] came to 0.028 µg/mL.

B4: PEGylated 1-15(N52D)-Fab′ (Fab, V domains shown)
VH: QVQLQQWGAGLLKPSETLSLTCAVYGGSFSGYYWSWVRQPPGKGLEWIGEIDHSGSTNNNPSLKSRVTISVGTSKNQFSLKLSSVTAADTAVYYCSRDGGPESGMGAFDIWGQGTMVTVSS
VL: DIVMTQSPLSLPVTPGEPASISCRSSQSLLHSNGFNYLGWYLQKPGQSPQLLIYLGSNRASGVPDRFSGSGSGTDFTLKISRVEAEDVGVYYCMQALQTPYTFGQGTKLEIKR
modifications: 40 kDa PEG (maleimide, SUNBRIGHT GL2-400MA) on Cys at position 230 of SEQ ID NO:10 (C226 based on EU index)
Take B4: the “IC50, method of Example 6 (Ca2+, HEK293-human trkA)” value in assay [2] came out at 0.069 µg/mL.
